What was measured:
[1] = biological target: cynomolgus monkey PVRIG (Novoprotein, Cat NO. C09B) (cynomolgus monkey); test: ELISA, coated cynomolgus PVRIG; negative control
[2] = biological target: human PVRIG-mFc protein (Acro, PVG-H5253) (human) (UniProt Q6DKI7); test: HTRF competition, PVRIG-mFc with Bio-CD112-His as competitor; negative control
[3] = biological target: cynomolgus monkey TIGIT ECD-mFc (cynomolgus monkey); test: ELISA, cynomolgus TIGIT ECD-mFc captured by anti-mouse IgG; negative control
cynomolgus monkey TIGIT ECD-mFc (cynomolgus monkey), sequence (chain, as listed by the source limits assumed): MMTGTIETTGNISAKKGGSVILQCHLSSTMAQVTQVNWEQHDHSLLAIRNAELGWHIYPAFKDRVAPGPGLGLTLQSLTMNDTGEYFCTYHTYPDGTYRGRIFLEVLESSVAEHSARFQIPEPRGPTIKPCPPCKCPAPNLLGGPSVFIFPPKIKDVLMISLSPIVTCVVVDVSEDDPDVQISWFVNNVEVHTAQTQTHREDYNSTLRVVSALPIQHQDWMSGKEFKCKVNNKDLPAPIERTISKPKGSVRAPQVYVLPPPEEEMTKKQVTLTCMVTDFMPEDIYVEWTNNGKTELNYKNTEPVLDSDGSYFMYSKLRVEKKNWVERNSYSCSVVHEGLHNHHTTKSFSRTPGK

[4] = biological target: human PVRIG (AcroBiosystems, Cat NO. PVG-H52H4) (human) (UniProt Q6DKI7); test: ELISA, coated human PVRIG; negative control
human PVRIG (AcroBiosystems, Cat NO. PVG-H52H4) (human), sequence (Q6DKI7 41-171 limits assumed, form in doubt): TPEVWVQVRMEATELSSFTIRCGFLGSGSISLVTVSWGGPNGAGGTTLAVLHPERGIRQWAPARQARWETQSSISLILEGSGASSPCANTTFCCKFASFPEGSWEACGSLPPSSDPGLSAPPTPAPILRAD

cynomolgus monkey PVRIG (Novoprotein, Cat NO. C09B) (cynomolgus monkey), sequence (chain, as listed by the source): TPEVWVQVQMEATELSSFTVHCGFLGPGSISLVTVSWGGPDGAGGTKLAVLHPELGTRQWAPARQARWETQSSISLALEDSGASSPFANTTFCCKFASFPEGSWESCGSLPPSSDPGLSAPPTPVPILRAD
human PVRIG-mFc protein (Acro, PVG-H5253) (human), sequence (Q6DKI7 41-171 limits assumed, form in doubt): as the sequence (Q6DKI7 41-171 limits assumed, form in doubt) above

- EC50 [1]: 4 nM
- IC50 [2]: 0.0302 nM
- EC50 [3]: 0.687 nM
- EC50 [4]: 40300 nM
Substance: anti-Fluorescein-hIgG1 (antibody)

Reference: US20240343803A1
